In US10907134B2, “Mutated genes for the catalytic protein of oplophorus luciferase and use thereof” (JNC CORPORATION, priority 2013, dated 2021):
Positions count from the first letter of the chain named. Names and notes keep the numbering of the source.

B1: KAZ-I90V: KAZ with single amino acid substitution I90V (protein)
chain: FTLADFVGDWQQTAGYNQDQVLEQGGLSSLFQALGVSVTPIQKVVLSGENGLKADIHVIIPYEGLSGFQMGLIEMIFKVVYPVDDHHFKVILHYGTLVIDGVTPNMIDYFGRPYPGIAVFDGKQITVTGTLWNGNKIYDERLINPDGSLLFRVTINGVTGWRLCENILA
B2: KAZ-P115E: KAZ with single amino acid substitution P115E (protein)
chain: B1 chain with V90I, P115E
B3: KAZ-Q124K: KAZ with single amino acid substitution Q124K (protein)
chain: B1 chain with V90I, Q124K
B4: KAZ-N166R: KAZ with single amino acid substitution N166R (protein)
chain: B1 chain with V90I, N166R
B5: KAZ-A4E: KAZ with single amino acid substitution A4E (protein)
chain: B1 chain with A4E, V90I

System: not listed separately
Assay: Luminescence activity of KAZ mutants (pCold II, E. coli) in supernatant and precipitate of crude enzyme solution
Assay type: biochemical
Settings: Table 3; pCold II, E. coli BL21; 5 μL precipitate; 0.5 μg coelenterazine; 60 seconds
Description: In order to express the KAZ mutants in E. coli, the recombinant plasmid prepared in EXAMPLE 3 was used. The E. coli BL21 strain (Novagen, Madison, Wis.) was used as a host cell. The BL21 strain carrying the recombinant plasmid was incubated in 5 mL of Luria-Bertani medium (hereinafter designated as LB medium) containing ampicillin (50 μg/mL) at 37° C. for 18 hours. This seed culture, 0.1 mL, was inoculated to 10 mL of LB medium and incubated for 3 hours, followed by cooling in an ice-water bath for 1 hour. IPTG was added to the culture medium at a final concentration of 1 mM, followed by incubation at 15° C. for further 20 hours. After completion of the incubation, 1 mL of the cultured medium was harvested by centrifugation at 10,000 rpm for 2 minutes. The thus collected E. coli cells were suspended in 0.5 mL of 30 mM Tris-HCl (pH 7.6)-10 mM EDTA (manufactured by Wako Pure Chemical Industries, Ltd.) (hereinafter designated as TE). The E. coli cells were disrupted by sonication for 3 seconds using a Branson Model 250 Sonifier (Danbury, Conn.) to give a crude enzyme solution. After 0.5 mL of the crude enzyme solution was further centrifuged at 10,000 rpm for 2 minutes to separate the supernatant from the precipitate, the precipitate was suspended in 0.5 mL of TE. Then 20 μL each of the supernatant and precipitate were analyzed by SDS-PAGE to confirm the presence or absence of soluble and insoluble proteins. The results are shown in FIG. 1, wherein M and 1 to 17 denote: M: molecular weight size markers; 1: KAZ; 2 KAZ-A4E; 3: KAZ-Q11R; 4: KAZ-Q18L; 5: KAZ-L27V; 6: KAZ-A33N; 7: KAZ-K43R; 8: KAZ-V44I; 9: KAZ-A54I; 10: KAZ-F68D; 11: KAZ-L72Q; 12: KAZ-M75K; 13: KAZ-I90V; 14: KAZ-P115E; 15: KAZ-Q124K; 16: KAZ-Y138I; 17: KAZ-N166R and 18: dnKAZ.
A luminescence reaction was started by the addition of 5 μL each of the supernatant and precipitate obtained in EXAMPLE 4 to 100 μL of TE containing 0.5 μg of coelenterazine (manufactured by JNC Corp.). The luminescence activity was measured for 60 seconds using a luminometer (manufactured by Atto Corp.: AB2200) and expressed in terms of relative luminescence activity (Imax).
To express the KAZ mutants with two amino acid substitutions and three amino acid substitutions in E. coli using a pCold II vector, the recombinant plasmid constructed in EXAMPLE 13 and pCold-V44I-KAZ, pCold-A54I-KAZ, pCold-Y138I-KAZ prepared in EXAMPLE 3 were used. The supernatant and precipitate of each crude enzyme solution were prepared in the same manner as EXAMPLE 4, using the E. coli BL21 starin (Novagen, Madison, Wis.) as a host cell. The supernatant and precipitate, 20 μL each, were subjected to SDS-PAGE analysis to confirm the presence or absence of soluble proteins and insoluble proteins. In FIG. 3, M and 1 to 9 are as follows. M: molecular weight markers; 1: dnKAZ; 2: KAZ; 3: KAZ-V44I-A54I; 4: KAZ-V44I-Y138I; 5: KAZ-A54I-Y138I; 6: KAZ-V44I-A54I-Y138I; 7: KAZ-V44I; 8: KAZ-A54I; and 9: KAZ-Y138I.
The luminescence activities of 5 μL each of the supernatant and precipitate obtained in EXAMPLE 14 were determined in the same manner as EXAMPLE 5. The luminescence activity was assayed with a luminometer (manufactured by Atto Inc.: AB2200) for 60 seconds, and the maximum intensity of luminescence (Imax) was shown as relative luminescence activity.

Point of comparison: B5, “Relative Luminescence Activity (Imax) Precipitate” value 0.2. Against it:
- B1 — higher, 0.4
- B2 — higher, 1.1
- B3 — higher, 0.8
- B4 — higher, 0.8

Same assay, conditions: Table 3; pCold II, E. coli BL21; 5 μL supernatant; 0.5 μg coelenterazine; 60 seconds

Point of comparison: B3, “Relative Luminescence Activity (Imax) Supernatant” value 7.4. Against it:
- B1 — lower, 2.1
- B2 — higher, 16
- B4 — lower, 4.7
- B5 — lower, 1.5

System: CHO-K1 cells
Assay: Luminescence activity of KAZ mutants expressed in animal culture cells with signal peptide of Gaussia luciferase for secretion
Assay type: cell-based, Chinese hamster
Settings: Table 5; pcDNA3-GLsp- vectors; CHO-K1, 48 hours; 5 μL cell extracts; 0.5 μg coelenterazine
Description: Chinese hamster ovary cell line CHO-K1 was cultured in Ham's F-12 medium (manufactured by Wako Pure Chemical Industries, Ltd.) supplemented with 10% (v/v) fetal bovine serum (manufactured by Biowest Inc.). The CHO-K1 cells were plated in a 6-well plate in 1×10^5 cells/well/2 mL medium (n=2) and cultured in an incubator at 37° C. in 5% (v/v) CO2. After 24 hours, the purified recombinant plasmid was transfected to CHO-K1 cells using a FuGene HD transfection kit (manufactured by Promega Corp.), which was provided for subsequent experiment. Specifically, 1 μg of the recombinant plasmid pGL4.13 [Luc2/sv40], 0.1 μg of the internal standard vector and 3 μL of FuGene HD were added to 100 μL of the medium, which was allowed to stand at room temperature for 15 minutes. Subsequently, 100 μL of the DNA-FuGene complex was added to the cells in the 6 wells. After incubation for 48 hours, the culture medium was collected. On the other hand, the KAZ mutants expressed in the cells were washed 3 times with 3 mL of 1×PBS, then suspended in 1 mL of 1×PBS and disrupted on ice by ultrasonication, which was used as enzyme solutions of the cell-extracts of KAZ mutants.
A luminescence reaction was started by adding 5 μL of the culture media and cell extracts obtained in EXAMPLE 10 to 100 μL of 30 mM Tris-HCl (pH 7.6)-10 mM EDTA (manufactured by Wako Pure Chemical Industries, Ltd.) containing 0.5 μg of coelenterazine (manufactured by INC Corp.). The luminescence activity was determined using a luminometer (manufactured by Atto Inc.: AB2200) for 60 seconds, and the maximum intensity of luminescence (Imax) was defined as a percentage.
Culture media of the KAZ mutants with two amino acid substitutions and KAZ mutants with three amino acid substitutions and the enzyme solutions of the cell-extracts of KAZ mutants were prepared in the same manner as EXAMPLE 10.
In the resultant enzyme solutions and the enzyme solutions of the cell-extracts of KAZ mutants, luminescence activities were determined in the same manner as EXAMPLE 11.

Point of comparison: B4, “Relative Luminescence Activity (Imax) (%) Cell Extracts” value 0.2%. Against it:
- B1 — higher, 0.3%
- B2 — higher, 0.3%
- B3 — higher, 0.3%
- B5 — lower, 0.1%

Same assay, conditions: Table 5; pcDNA3-GLsp- vectors; CHO-K1, 48 hours; 5 μL culture medium; 0.5 μg coelenterazine

For B1, the “Relative Luminescence Activity (Imax) (%) Culture Medium” value was “less than 0.01%”.
In the case of B2, the “Relative Luminescence Activity (Imax) (%) Culture Medium” value is reported as “less than 0.01%”.
For B3, the “Relative Luminescence Activity (Imax) (%) Culture Medium” value was “less than 0.01%”.
With B4 the “Relative Luminescence Activity (Imax) (%) Culture Medium” value was “less than 0.01%”.
For B5, the “Relative Luminescence Activity (Imax) (%) Culture Medium” value was “less than 0.01%”.

System: not listed separately
Assay: Luminescence activity of ZZ-fused KAZ mutants in crude enzyme solutions
Assay type: biochemical
Settings: Table 4; ZZ-fused (pCold-ZZ-P-); 1 μL crude enzyme solution, 1 mM DTT; 1 μg coelenterazine
Description: To express the ZZ-fused KAZ mutants in E. coli, the recombinant plasmid prepared in EXAMPLE 6 was used. Crude enzyme solutions were prepared in the same manner as EXAMPLE 4 using the E. coli BL21 strain (Novagen, Madison, Wis.) as a host cell. The resultant crude enzyme solution, 5 μL, was subjected to SDS-PAGE analysis to confirm expression of the proteins (FIG. 2). In FIG. 2, M and 1 to 18 are the same as described in FIG. 1.
DTT was added to the crude enzyme solution obtained in EXAMPLE 7 at a final concentration of 1 mM and the mixture was allowed to stand in an ice water for more than 5 hours. A luminescence reaction was started by adding 1 μL of the crude enzyme solution to 100 μL of TE containing 1 μg of coelenterazine (manufactured by JNC Corp.). The luminescence activity was determined using a luminometer (manufactured by Atto Inc.: AB2200) for 60 seconds, and the maximum intensity of luminescence (Imax) was shown as relative luminescence activity.
To express the ZZ-fused KAZ mutants in E. coli, the recombinant plasmid constructed in EXAMPLE 16 and pCold-ZZ-P-V44I-KAZ, pCold-ZZ-P-A54I-KAZ, pCold-ZZ-P-Y138I-KAZ prepared in EXAMPLE 6 were used. Crude enzyme solutions were prepared in the same manner as EXAMPLE 7, using the E. coli BL21 strain (Novagen, Madison, Wis.) as a host cell. DTT was added to the crude enzyme solutions at a final concentration of 1 mM. The mixtures were allowed to stand over 5 hours on ice, and luminescence activities were then assayed. The luminescence activities were determined by the method described in EXAMPLE 8. Also, 5 μL of the resultant crude enzyme solutions were subjected to SDS-PAGE analysis to confirm protein expression (FIG. 4). In FIG. 4, M and 1 to 9 are as follows. M: molecular weight size markers; 1: ZZ-P-KAZ; 2: ZZ-P-KAZ-V44I; 3: ZZ-P-KAZ-A54I; 4: ZZ-P-KAZ-Y138I; 5: ZZ-P-KAZ-V44I-A54I; 6: ZZ-P-KAZ-V44I-Y138I; 7: ZZ-P-KAZ-A54I-Y138I; 8: ZZ-P-KAZ-V44I-A54I-Y138I; and 9: ZZ-P-dnKAZ.

Point of comparison: B1, “Relative Luminescence Activity (Imax)” value 1.8. Against it:
- B2 — higher, 4.5
- B3 — higher, 3.7
- B4 — higher, 3.6
- B5 — lower, 0.5
